{
  "source": "paper PMC6045382",
  "biological_target": "thrombin (UniProt P00734;P00734 328-363;364-622)",
  "experiment": "19F NMR",
  "data": [
    {"binder": "GGTTGGTGTGGTTGG (structured_DNA, dT9 replaced by 5-[{3,5-bis(trifluoromethyl)phenyl}ethynyl]-2'-deoxyuridine)", "note": "[T9 (19F-labeled TBA)]", "values": [
      {"measurement": "binding result", "value": "binds"}
    ]}
  ]
}
